From patent US20130344073A1 come the findings set out here.

The target in experiment [1] is human MASP-2 (human) (UniProt O00187). The experiment in a line: cell-based or functional assay.
Experiment [2] addresses human MASP-1 (human) (UniProt P48740). The experiment in a line: cell-based or functional assay.

human MASP-2 (human), sequence (O00187 16-686): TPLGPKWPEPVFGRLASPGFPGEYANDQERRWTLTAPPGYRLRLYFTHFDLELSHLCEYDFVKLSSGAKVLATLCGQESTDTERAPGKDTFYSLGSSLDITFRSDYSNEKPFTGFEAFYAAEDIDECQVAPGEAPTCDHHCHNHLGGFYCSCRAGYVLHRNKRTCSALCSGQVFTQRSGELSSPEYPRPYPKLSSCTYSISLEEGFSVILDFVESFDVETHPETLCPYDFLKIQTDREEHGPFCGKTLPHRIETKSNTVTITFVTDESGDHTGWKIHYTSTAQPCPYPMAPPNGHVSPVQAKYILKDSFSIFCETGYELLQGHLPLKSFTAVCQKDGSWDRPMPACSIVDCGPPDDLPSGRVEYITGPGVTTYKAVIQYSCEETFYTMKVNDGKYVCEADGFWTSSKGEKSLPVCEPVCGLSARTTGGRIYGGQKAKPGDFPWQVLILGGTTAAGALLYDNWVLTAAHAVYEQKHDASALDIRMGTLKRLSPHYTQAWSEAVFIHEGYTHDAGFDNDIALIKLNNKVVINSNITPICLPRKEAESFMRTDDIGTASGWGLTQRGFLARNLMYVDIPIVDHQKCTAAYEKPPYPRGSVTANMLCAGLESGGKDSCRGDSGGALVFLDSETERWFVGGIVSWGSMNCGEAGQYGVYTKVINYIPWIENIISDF
human MASP-1 (human), sequence (P48740 other isoform, or with tags, fused parts or gaps): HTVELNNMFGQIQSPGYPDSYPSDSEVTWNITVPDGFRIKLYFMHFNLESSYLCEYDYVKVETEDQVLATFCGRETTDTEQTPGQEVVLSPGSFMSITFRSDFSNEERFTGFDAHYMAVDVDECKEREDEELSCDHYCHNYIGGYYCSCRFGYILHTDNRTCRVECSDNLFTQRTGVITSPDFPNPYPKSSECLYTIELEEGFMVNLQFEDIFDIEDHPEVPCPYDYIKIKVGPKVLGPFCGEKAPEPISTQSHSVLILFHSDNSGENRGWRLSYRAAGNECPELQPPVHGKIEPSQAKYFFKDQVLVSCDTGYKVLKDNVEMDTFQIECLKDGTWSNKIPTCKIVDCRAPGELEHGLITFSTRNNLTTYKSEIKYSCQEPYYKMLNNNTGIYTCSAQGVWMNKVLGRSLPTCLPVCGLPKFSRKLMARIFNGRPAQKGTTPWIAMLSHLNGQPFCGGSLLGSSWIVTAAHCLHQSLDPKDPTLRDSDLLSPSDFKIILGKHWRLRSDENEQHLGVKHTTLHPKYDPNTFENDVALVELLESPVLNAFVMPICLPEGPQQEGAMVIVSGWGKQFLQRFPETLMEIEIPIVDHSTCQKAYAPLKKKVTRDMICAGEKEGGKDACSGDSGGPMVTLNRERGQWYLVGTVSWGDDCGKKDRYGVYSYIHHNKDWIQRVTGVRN

“SGMI-2Fc, mature polypeptide fusion comprising SGMI-2, linker and human IgG1-Fc (Fc fusion)” registered a C3b deposition from 1% normal human serum on mannan (IC50) in experiment [1] of 0.3 µM.
In turn, “SGMI-1Fc, mature polypeptide fusion comprising SGMI-1, linker and human IgG1-Fc (Fc fusion)” came in with a C3b deposition from 1% normal human serum on mannan (IC50) in experiment [2] of 0.027 µM.
